T1: SIP2 D1 (Plasmodium falciparum, UniProt C6KSN9 177-235)
T1 sequence: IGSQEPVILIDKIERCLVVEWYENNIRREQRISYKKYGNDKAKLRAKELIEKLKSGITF

T2: HDP1 homeodomain-like (Plasmodium falciparum, UniProt Q8IKH4 2990-3078)
T2 sequence: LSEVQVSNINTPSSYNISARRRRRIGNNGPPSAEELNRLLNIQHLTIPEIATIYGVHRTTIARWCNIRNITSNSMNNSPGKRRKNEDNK

B1: GTGCAC_negctrl_site132 (dsDNA)
DNA 1: AAAGTAACACACTAATATTTTAACAAATAATATATA
DNA 2: TATATATTATTTGTTAAAATATTAGTGTGTTACTTT
B2: GTGCAC_negctrl_site533 (dsDNA)
DNA 1: AAATTAATAAATATTTTTATAAATTATAATATTAAT
DNA 2: ATTAATATTATAATTTATAAAAATATTTATTAATTT
B3: GTGCAC_site9580 (dsDNA)
DNA 1: ATTTTTATTTTTTTTGTGCACATTTTCATTTTCTAT
DNA 2: ATAGAAAATGAAAATGTGCACAAAAAAAATAAAAAT
B4: GTGCAC_negctrl_site428 (dsDNA)
DNA 1: AATATATGTATATATTTTTTTTTTTCCCTTACAAAT
DNA 2: ATTTGTAAGGGAAAAAAAAAAATATATACATATATT
B5: GTGCAC_negctrl_site61 (dsDNA)
DNA 1: TGTTTTTTGTTCTTTACAAAAAAAAAAAAAAAAAAA
DNA 2: TTTTTTTTTTTTTTTTTTTGTAAAGAACAAAAAACA
B6: GTGCAC_negctrl_site735 (dsDNA)
DNA 1: AAAATTAATTATTACAAAAATGAAAAGACATATTTT
DNA 2: AAAATATGTCTTTTCATTTTTGTAATAATTAATTTT
B7: GTGCAC_negctrl_site104 (dsDNA)
DNA 1: TTTTTTTTTTCTTTTTTTTATTATATTAACGGAATT
DNA 2: AATTCCGTTAATATAATAAAAAAAAGAAAAAAAAAA
B8: GTGCAC_negctrl_site259 (dsDNA)
DNA 1: TATTTACAACAAATTTAATTATTTTTAACTTATAAA
DNA 2: TTTATAAGTTAAAAATAATTAAATTTGTTGTAAATA
B9: GTGCAC_negctrl_site308 (dsDNA)
DNA 1: TAATAATAGTACTGACATCAAAATCTTATTAAAAAT
DNA 2: ATTTTTAATAAGATTTTGATGTCAGTACTATTATTA
B10: GTGCAC_negctrl_site204 (dsDNA)
DNA 1: TAATATGTTTATGGTAACATACAAAAATGTATATAT
DNA 2: ATATATACATTTTTGTATGTTACCATAAACATATTA
B11: GTGCAC_negctrl_site199 (dsDNA)
DNA 1: AAAATTATATTTTATAGAAATTTAAATAAATATATA
DNA 2: TATATATTTATTTAAATTTCTATAAAATATAATTTT
B12: GTGCAC_negctrl_site36 (dsDNA)
DNA 1: TTATGTGATAAAAAAAAAATACAACAAAGTTAAATA
DNA 2: TATTTAACTTTGTTGTATTTTTTTTTTATCACATAA
B13: GTGCAC_negctrl_site266 (dsDNA)
DNA 1: AATCAATATAAATAAAATTTTTAATTTTAACCCTAA
DNA 2: TTAGGGTTAAAATTAAAAATTTTATTTATATTGATT
B14: GTGCAC_negctrl_site554 (dsDNA)
DNA 1: AAAAAAAAAAAATATTGTAGAATATGATGACTTTGT
DNA 2: ACAAAGTCATCATATTCTACAATATTTTTTTTTTTT
B15: GTGCAC_negctrl_site376 (dsDNA)
DNA 1: AACAGAATAATACTAAATGAACGATTTCTCTTTATG
DNA 2: CATAAAGAGAAATCGTTCATTTAGTATTATTCTGTT
B16: GTGCAC_negctrl_site522 (dsDNA)
DNA 1: TTTTTTACGCATAACTTAATATGAGAATCCCTTTCT
DNA 2: AGAAAGGGATTCTCATATTAAGTTATGCGTAAAAAA
B17: GTGCAC_negctrl_site440 (dsDNA)
DNA 1: TTTTTTATTCCATAATATAATATGTTTTGAAATTTG
DNA 2: CAAATTTCAAAACATATTATATTATGGAATAAAAAA
B18: GTGCAC_negctrl_site82 (dsDNA)
DNA 1: CTGATATATTATTTATCTGAATATATTAATATGTAT
DNA 2: ATACATATTAATATATTCAGATAAATAATATATCAG

These binders were tested against T1, SIP2 D1 (assay: gcPBM; about 25 ug protein; PBS, 1% milk, 0.2 mg/ml BSA, salmon testes DNA, 0.03% Triton X-100). Conditions: tags: N-terminal GST (pGEX-4T-1), kept; label: surface-attached array probe.

How did the binding signal turn out when B1 was run?
The binding signal was 6.76 ln median PBM intensity, better of two orientations.

Which binding signal does the source give for B2 here?
The binding signal was 6.52 ln median PBM intensity, better of two orientations.

With B3 as the binder, how does the binding signal read?
Its binding signal is 9.53 ln median PBM intensity, better of two orientations.

With B4 as the binder, how does the binding signal read?
Its binding signal is 6.66 ln median PBM intensity, better of two orientations.

For B5, which binding signal is on record?
Its binding signal is 6.89 ln median PBM intensity, better of two orientations.

How did the binding signal turn out when B6 was run?
Its binding signal is 6.68 ln median PBM intensity, better of two orientations.

How did the binding signal turn out when B7 was run?
Its binding signal is 6.89 ln median PBM intensity, better of two orientations.

With B8 as the binder, how does the binding signal read?
Its binding signal is 6.7 ln median PBM intensity, better of two orientations.

For B9, which binding signal is on record?
The binding signal was 6.81 ln median PBM intensity, better of two orientations.

With B10 as the binder, how does the binding signal read?
The binding signal was 6.79 ln median PBM intensity, better of two orientations.

Which binding signal does the source give for B11 here?
The binding signal was 6.79 ln median PBM intensity, better of two orientations.

Which binding signal does the source give for B12 here?
Its binding signal is 6.76 ln median PBM intensity, better of two orientations.

For B13, which binding signal is on record?
Its binding signal is 6.64 ln median PBM intensity, better of two orientations.

How did the binding signal turn out when B14 was run?
The binding signal was 6.85 ln median PBM intensity, better of two orientations.

Which binding signal does the source give for B15 here?
The binding signal was 6.78 ln median PBM intensity, better of two orientations.

B16 was tested. Which binding signal did it give?
Its binding signal is 6.89 ln median PBM intensity, better of two orientations.

B17 was tested. Which binding signal did it give?
Its binding signal is 6.8 ln median PBM intensity, better of two orientations.

Which binding signal does the source give for B18 here?
The binding signal was 6.78 ln median PBM intensity, better of two orientations.

The binders below were run against T2, HDP1 homeodomain-like in the same assay as above. Conditions: tags: N-terminal GST (pGEX-4T-1), kept; chain copies: 2; label: surface-attached array probe.

B1 was tested. Which binding signal did it give?
The binding signal was 6.15 ln median PBM intensity, better of two orientations.

With B2 as the binder, how does the binding signal read?
Its binding signal is 5.92 ln median PBM intensity, better of two orientations.

Which binding signal does the source give for B3 here?
Its binding signal is 11.3 ln median PBM intensity, better of two orientations.

With B4 as the binder, how does the binding signal read?
The binding signal was 6.17 ln median PBM intensity, better of two orientations.

How did the binding signal turn out when B5 was run?
The binding signal was 6.15 ln median PBM intensity, better of two orientations.

With B6 as the binder, how does the binding signal read?
The binding signal was 5.96 ln median PBM intensity, better of two orientations.

Which binding signal does the source give for B7 here?
Its binding signal is 6.2 ln median PBM intensity, better of two orientations.

Which binding signal does the source give for B8 here?
Its binding signal is 6.18 ln median PBM intensity, better of two orientations.

B9 was tested. Which binding signal did it give?
Its binding signal is 5.97 ln median PBM intensity, better of two orientations.

Which binding signal does the source give for B10 here?
Its binding signal is 6.05 ln median PBM intensity, better of two orientations.

For B11, which binding signal is on record?
Its binding signal is 6 ln median PBM intensity, better of two orientations.

B12 was tested. Which binding signal did it give?
Its binding signal is 6.32 ln median PBM intensity, better of two orientations.

Which binding signal does the source give for B13 here?
The binding signal was 6.24 ln median PBM intensity, better of two orientations.

How did the binding signal turn out when B14 was run?
The binding signal was 6.29 ln median PBM intensity, better of two orientations.

B15 was tested. Which binding signal did it give?
Its binding signal is 5.96 ln median PBM intensity, better of two orientations.

With B16 as the binder, how does the binding signal read?
The binding signal was 6.33 ln median PBM intensity, better of two orientations.

With B17 as the binder, how does the binding signal read?
Its binding signal is 6.16 ln median PBM intensity, better of two orientations.

Which binding signal does the source give for B18 here?
Its binding signal is 6.08 ln median PBM intensity, better of two orientations.
